# Assay results as given in article PMC3085015.
# Assays:
# wild type Rop = wild type Rop (UniProt P03051); test: SEC
# F14Bpa-Rop [1] = biological target: F14Bpa-Rop (UniProt P03051); test: SEC
# F14Bpa-Rop [2] = biological target: F14Bpa-Rop (UniProt P03051); test: cross-linking
# F14Bpa-Rop [3] = biological target: F14Bpa-Rop (UniProt P03051); test: cross-linking + SEC
# F14Bpa-Rop [4] = biological target: F14Bpa-Rop (UniProt P03051); test: cross-linking; remark: listed apart in the source
stoichiometry N (wild type Rop),stoichiometry N (F14Bpa-Rop [1]),stoichiometry N (F14Bpa-Rop [2]),stoichiometry N (F14Bpa-Rop [3]),stoichiometry N (F14Bpa-Rop [4]),Substance
2,–,–,–,–,wild type Rop (from UniProt P03051 1-63) (natural protein)
–,2,4,4,4,F14Bpa-Rop (from UniProt P03051 1-63) (natural protein)
